Experimental data reported in patent US9212226B2, “Amino acid sequences directed against CXCR4 and other GPCRs and compounds comprising the same” (Ablynx N.V., priority 2008, dated 2015).
Entries after “also recorded” stand apart in the source; their conditions may differ.

Target: T1, CXCR2 (Homo sapiens, UniProt P25025)
T1 sequence (P25025 1-360): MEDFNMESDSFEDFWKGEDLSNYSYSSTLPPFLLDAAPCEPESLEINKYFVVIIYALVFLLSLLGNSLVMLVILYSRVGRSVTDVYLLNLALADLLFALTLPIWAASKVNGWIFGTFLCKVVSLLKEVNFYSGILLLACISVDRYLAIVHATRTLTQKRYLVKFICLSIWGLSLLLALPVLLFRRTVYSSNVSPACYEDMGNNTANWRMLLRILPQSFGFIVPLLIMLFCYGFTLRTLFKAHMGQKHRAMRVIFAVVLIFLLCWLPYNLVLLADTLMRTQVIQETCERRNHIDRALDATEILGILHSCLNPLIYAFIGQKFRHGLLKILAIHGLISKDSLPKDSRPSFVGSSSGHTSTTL
Assay: CRE/β-galactosidase reporter gene selectivity screen, CXCR2
Type: cell-based
Details: up to 2.5, forskolin 3 μM, agonist at 50-80% Emax
Procedure: Data are shown as means±S.E.M. (n=2-3).
HEK293T cells were maintained at 37° C. in a humidified 5% CO2, 95% air atmosphere in Dulbecco's modified Eagle's medium (DMEM) containing 2 mM L-glutamine, 50 IU/ml penicillin, 50 μg/ml streptomycin, and 10% (v/v) fetal calf serum. Jurkat cells were cultured in a humidified 5% CO2, 95% air atmosphere in a 1:1 mixture of Dulbecco's modified Eagle's medium (DMEM) and Ham's F12 medium containing 2 mM L-glutamine, 50 IU/ml penicillin, 50 μg/ml streptomycin, and 10% (v/v) fetal calf serum. […] [^125 I]-Labelling— Radiolabeling of Nanobodies with ^125I was performed using the Iodo-gen method (Pierce, Rockford, Ill.) according to the manufacturer's protocol. ^125I-labeled Nanobodies was separated from free iodine (>99%) using a Sephadex G-25 gel filtration column (Amersham Biosciences, Piscataway, N.J.). […] Competition Binding Assays— Membranes from HEK293T cells transiently expressing CXCR3 or CXCR4 were prepared 48 h after transfection as follows. Cells were washed and scraped from the cell culture dishes with ice-cold PBS containing 1 mm EDTA. The scraped cells were pelleted at 1500×g for 10 min at 4° C. […] The total protein was determined using a Bradford assay (Bio-Rad). […] Plates were counted by liquid scintillation. […] The accumulated inositol phosphates were isolated by anion exchange chromatography and counted by liquid scintillation. […]

B1: 238D2: Nanobody (VHH) raised against human CXCR4, SEQ ID NO: 238 (protein)
VHH: EVQLVESGGGLVQTGGSLRLSCAASGFTFSSYAMSWVRQAPGKGLEWVSGIKSSGDSTRYAGSVKGRFTISRDNAKNMLYLQMYSLKPEDTAVYYCAKSRVSRTGLYTYDNRGQGTQVTVSS
modifications: Nanobody, Nanobody constructs or fragments thereof
effect on agonist-induced response at CXCR2: do not act as agonists or antagonists; also recorded: do not alter

B2: 238D4: Nanobody (VHH) raised against human CXCR4, SEQ ID NO: 239 (protein)
VHH: EVQLMESGGGLVQAGGSLRLSCAASGRTFNNYAMGWFRRAPGKEREFVAAITRSGVRSGVSAIYGDSVKDRFTISRDNAKNTLYLQMNSLKPEDTAVYTCAASAIGSGALRRFEYDYSGQGTQVTVSS
modifications: Nanobody, Nanobody constructs or fragments thereof
effect on agonist-induced response at CXCR2: do not act as agonists or antagonists; also recorded: do not alter
